Laboratory results reported in PMC5507356, “Characterization of the molecular chaperone ClpB from the pathogenic spirochaete Leptospira interrogans” (PLoS ONE, 2017).

Target: the molecule itself
Assay: AUC; sedimentation velocity, 1.2 mg/ml ClpBLi with 2 mM ATPγS, 20°C, 50 mM Tris-HCl pH 7.5, 200 mM KCl, 20 mM MgCl2, 1 mM EDTA, 2 mM β-mercaptoethanol, 5% glycerol

B1: ClpB from Leptospira interrogans (ClpBLi), recombinant (natural protein)
chain: not shown
notes: Chaperone protein ClpB, Leptospira interrogans; intact protein runs at ~100 kDa; Monomer without nucleotide, hexamer with ATPγS; source: E. coli BL21(DE3), purified (Co-NTA IMAC, Superdex 200 gel filtration); not shown: His6, N-terminal, cleaved
stoichiometry N: 6
